Results taken from patent US5574007A, “Polypeptide capable of interacting with thrombin” (Asahi Kasei Kogyo Kabushiki Kaisha, priority 1990, dated 1996).

Key:
[1] = biological target: T1, thrombin-catalyzed activation of protein C (Homo sapiens, UniProt P00734); experiment: Activity to promote the activation of protein C (Example 9-(4)); format: biochemical; conditions: peptide solution 10 nM, thrombin 15 nM, protein C 3.2 μM, 37° C., one hour
Method: With respect to the polypeptide purified in Example 9-(3), the activity to promote the activation of protein C is measured according to the following method. That is, 10 μl of a peptide solution (10 nM), 10 μl of thrombin (15 nM), 10 μl of protein C (3.2 μM), 10 μl of 10×Assay buffer [0.5M Tris HCl (pH 7.5) containing 1% BSA, 1M NaCl and 20 mM CaCl2 ] and 60 μl of distilled water are mixed together. The mixture is reacted at 37° C. for one hour, and antithrombin III and hepalin are added at final concentrations of 100 nM and lu/ml, respectively, thereby stopping the reaction. To measure the concentration of activated protein C, the concentration of AMC ([…]) liberated from a 200 μM substrate of Boc-Leu-Ser-Thr-Arg-MCA in a buffer containing 0.05M Tris HCl (pH 8.0) and 0.1M CsCl is measured at an excitation wavelength of 380 nm and a measuring wavelength of 440 nm.

[2] = biological target: T2, thrombin-catalyzed activation of GDPC (protein C having no Gla domain) (Homo sapiens, UniProt P00734); experiment: Same assay with protein C having no Gla domain (GDPC) instead of protein C; format: biochemical; conditions: calcium ion concentrations of 0 to 5 mM
T2 construct: 3 μl of thrombin (manufactured and sold by Sigma Chemical Company, catalog No. T-6759, 20 ng/μl); purchased Sigma Chemical Company T-6759
Method: (§1) With respect to the polypeptide solutions (0.4 μg/ml) purified and quantitated in Example 1-(5)-(d), the activity of polypeptides to promote the thrombin-catalyzed activation of protein C is measured according to the method described in Example 1-(3). The CaCl2 concentration of 10×Assay buffer is adjusted so that the activities at calcium ion concentrations of 0 to 5 mM are determined. Also, with respect to protein C having no Gla domain (hereinafter referred to as "GDPC") which is prepared by chymotrypsin treatment according to the method of N. L. Esmon [J. Biol. Chem. Vol. 258, pp. 5548-5553 (1983)]and which is used instead of protein C, the activity measurement is carried out within the same range of calcium concentration.

[3] = biological target: T1, thrombin-catalyzed activation of protein C; experiment: Assay of the activity to promote the thrombin-catalyzed activation of protein C (Example 1-(3), fluorogenic substrate Boc-Leu-Ser-Thr-Arg-MCA); format: biochemical, bovine; set-up: 3 μl of thrombin (manufactured and sold by Sigma Chemical Company, catalog No. T-6759, 20 ng/μl); purchased Sigma Chemical Company T-6759; conditions: for calcium ion concentration at which the activity is highest: activation of protein C, calcium ion 0 to 5 mM; for activity to promote the thrombin-catalyzed activation of protein C (in words): purified polypeptide from COS-1, calcium ion concentrations of 0 to 5 mM; for amount of activated protein C with reaction time (in words): from D71 strain
Method: 5 μl of the supernatant of the culture of COS-1 cells is transformed by each of plasmids pSV2TMD7 and pSV2TMD8, 3 μl of thrombin (manufactured and sold by Sigma Chemical Company, catalog No. T-6759, 20 ng/μl), 5 μl of 10×Assay Buffer containing 1M NaCl, 30 mM CaCl2, 1% calf serum albumin and 0.5M tris-HCl buffer (pH 8.5) and 29.5 μl of distilled water are mixed together and allowed to stand at 37° C. for 5 minutes, followed by the addition of 7.5 μl protein C (derived from bovine, 0.2 μg/μl) to the mixture. The reaction is conducted at 37° C. for 30 minutes, and terminated by adding 6.25 μl of a stop solution (20 mM tris-HCl buffer, pH7.5, containing 100 mM NaCl, 0.3A280 anti-thrombin III and 100 μg/ml heparin).
The activity of activated protein C is measured by first adding 10 μl of Boc-Leu-Ser-Thr-Arg-MCA (manufactured and sold by Peptide Institute, The Foundation (Japan), 5 mg/ml), 5 μl of 5M CsCl and 495 μl of a substrate reaction buffer (50 mM tris-HCl buffer containing 100 mM NaCl (pH 8.5)), next allowing the reaction to proceed at 37° C. for 20 minutes, then terminating the reaction by adding 55 μl of acetic acid, and finally measuring the concentration of liberated AMC ([…]) by means of a spectrofluorometer (model RF-540, manufactured and sold by Shimadzu Corporation, Japan) at an excitation wavelength of 380 nm and an emission wavelength of 440 nm. The obtained fluorescence intensity is compared with the fluorescence intensity of a solution having a known AMC concentration to determine the amount of the liberated AMC. The value obtained by deducting from this amount the amount of AMC in the case where an aqueous solution containing no polypeptide of the present invention is added, represents the activity of the polypeptide to promote the thrombin-catalyzed activation of protein C. The activity to produce 1 nM of activated protein C per ml of reaction mixture and per minute is defined as 1 u (unit).
as §1

[4] = test system: thrombin-catalyzed platelet aggregation; experiment: Platelet aggregation-inhibiting activity (Platelet Rich Plasma, HEMA TRACER IV); format: cell-based; conditions: polypeptide purified from Acremonium chrysogenum (Example 6(4))
Method: The activity of each of the polypeptides of the present invention to inhibit the thrombin-catalyzed platelet aggregation is evaluated using platelet aggregation measuring apparatus HEMA TRACER IV (manufactured and sold by NIKO Bioscience, Inc., Japan). Measurement is carried out according to the manual attached thereto. When 40 μl of a 20 NIH unit/ml thrombin solution (manufactured and sold by SIGMA Chemical Co., U.S.A., T 6759) is added to 180 μl of a Platelet Rich Plasma (PRP) platelet solution (3×10^5 cells/μl) and incubated, the aggregation of platelets occurs. […] The aggregation of platelets is determined on the basis of the transparency, assuming the transparency of Platelet Poor Plasma (PPP) solution as 100%. The ratio of platelet aggregation is plotted against the incubation time (0 min: the time when thrombin or a mixture of thrombin and one of the polypeptides is added to the PRP solution). It is confirmed that the platelet aggregation is inhibited when one of the polypeptides of the present invention is added.

[5] = biological target: T1, thrombin-catalyzed activation of protein C; experiment: Activated protein C formation against reaction time with purified polypeptide (Example 4-(6)); format: biochemical; conditions: polypeptide purified from Acremonium chrysogenum strains D71 and M31 (Example 6(4))
Method: To 0.02M Tris-HCl buffer (pH 8.5) containing 0.1M NaCl, 0.5 mM CaCl2 and 10 mg/ml BSA are added 50 μg/ml protein C, 5 nM thrombin and 5 nM of each of the purified polypeptides of the present invention, and reacted at 37° C. To each of the reaction mixtures are added 300 μg/ml antithrombin III (manufactured and sold by Sigma Chemical Company, U.S.A.) and 5 mM EDTA to terminate the reaction. Then, the amount of the activated protein C produced by the reaction is determined by the method described in Example 1-(3) in which a synthetic substrate is used.

[6] = biological target: thrombin-catalyzed conversion of fibrinogen to fibrin (Homo sapiens, UniProt P00734); experiment: Anticoagulating activity: clotting time of a fibrinogen solution; format: biochemical; conditions: polypeptide purified from Acremonium chrysogenum (Example 6(4))
Method: The activity of each of the polypeptides of the present invention to inhibit the thrombin-catalyzed conversion of fibrinogen to fibrin so as to inhibit blood coagulation, is determined by measuring clotting time using Coagulometer KC-10A (manufactured and sold by Heinrich Amelung A.G., Germany). Illustratively stated, to 0.05M Tris-HCl buffer (pH 7.5) containing 5 mM CaCl2 and 0.1M NaCl is added 3.0 μg of fibrinogen (Fraction I, manufactured and sold by Sigma Chemical Company, U.S.A.). To the resultant mixture is added 0 to 50 nM of each of the purified polypeptides of the present invention. Then, 10 nM thrombin is added to the mixture in such an amount that the total amount of the mixture becomes 0.4 ml, and then the coagulation time of the mixture is measured.

Substance	production of activated protein C [1] [pmol]	activity in the activation of GDPC (in words) [2]	calcium ion concentration at which the activity is highest [3] [mM]	activity to promote the thrombin-catalyzed activation of protein C (in words) [3]	thrombin-catalyzed platelet aggregation (in words) [4]	amount of activated protein C with reaction time (in words) [5]	clotting time of fibrinogen solution against amount of polypeptide (in words) [6]	Specific activity ([3]; COS-1 culture supernatant, activity per amount of polypeptide by ELISA) [u/mg]	specific activity (in words) ([3]; deletion mutants expressed in COS-1 cells)	amount of activated protein C with reaction time (in words) ([3]; purified by DIP-thrombin column (Example 8(2)))	amount of activated protein C with reaction time (in words) ([3]; purified by anti-TM monoclonal antibody column 1 (Example 8(4)))	amount of activated protein C with reaction time (in words) ([3]; purified by anti-TM monoclonal antibody column 2 (Example 8(5)))	Activity ([3]; supernatant of culture of COS-1 cells transformed with the plasmid, 1 u = 1 nM activated protein C per ml per minute) [u/ml]
D123Asp: polypeptide of amino acid residues up to the 516th position of human thrombomodulin (FIG. 55), expressed from pSV2TMD1	18.6	low activity	0.4 to 0.5	high activity	–	–	–	–	–	–	–	–	–
E456Asp: polypeptide of the 367th to 480th amino acid residues of human thrombomodulin, from cells transfected with pSV2TMD7 or Acremonium strain D71	18.3	low activity	0.4 to 0.5	high activity	inhibited	increased with the lapse of reaction time	the longer the clotting time	5809	same level of specific activity as that of the 115-amino acid polypeptide	increased with the lapse of the reaction time	increased with the lapse of reaction time	increased with lapse of reaction time	1210
